These results are taken from US20120058906A1 (published 2012).

As usually defined, the Kd is the free concentration of one partner at which half of the binding sites on the other are occupied at equilibrium, for simple one-to-one binding.

The target in assay [1] is T1, Recombinant Human DLL4 (R&D Systems Cat#1506-D4/CF) (human, UniProt Q9NR61 27-524).
T1 construct: Bought protein; also called delta-like protein 4
As to the kind of experiment: ECL (MSD multi-spot) titration, Fab at 0.0625 uM; blank spot 1738.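 Further: blank spot per well as comparator with Hit at signal to blank ratio of 4 or more.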

For assay [2], the target named is T2, rHuman EGF R/Fc Chimera, CF (R&D Systems Cat#344-ER) (human, UniProt P00533 25-645).
T2 construct: Bought protein; also called epidermal growth factor receptor; not shown: Fc of the bought chimera
Described as above.

For assay [3], the target named is T3, rHuman P-Cadherin/Fc Chimera, CF (R&D Systems Cat#861-PC) (human, UniProt P22223 108-654).
T3 construct: Bought protein; not shown: Fc of the bought chimera
The assay is described as above.

Assay [4] deals with T4, rHuman Erythropoietin R/Fc Chimera, CF (R&D Systems Cat#963-ER) (human, UniProt P19235 25-250).
T4 construct: Bought protein; also called EPO R/Fc; EPOR; not shown: Fc of the bought chimera
T4 sequence: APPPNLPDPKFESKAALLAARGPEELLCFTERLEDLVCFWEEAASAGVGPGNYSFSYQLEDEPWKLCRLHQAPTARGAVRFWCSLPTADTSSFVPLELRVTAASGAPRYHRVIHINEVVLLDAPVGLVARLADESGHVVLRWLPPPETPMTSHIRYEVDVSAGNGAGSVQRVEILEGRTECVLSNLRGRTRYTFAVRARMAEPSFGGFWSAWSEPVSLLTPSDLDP
The assay is described as above.

Assay [5] has as its target T5, rHuman IGF-1 sR, CF (R&D Systems Cat#391-GR) (human, UniProt P08069 31-932).
T5 construct: Bought soluble receptor; also called insulin-like growth factor-1 soluble receptor; IGF-R1
The assay is described as above.

For assay [6], the target named is T1, Recombinant Human DLL4 (R&D Systems …). In words: ECL (MSD multi-spot) titration, Fab at 0.25 uM; blank spot 6344.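 Further: blank spot per well as comparator with Hit at signal to blank ratio of 4 or more.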
The target in assay [7] is T2, rHuman EGF R/Fc Chimera, CF (R&D …). Described as above.
In assay [8] the target is T3, rHuman P-Cadherin/Fc Chimera, CF (R&D …). The description is as above.
In assay [9] the target is T4, rHuman Erythropoietin R/Fc Chimera, CF …. Described as above.
The target of assay [10] is T5, rHuman IGF-1 sR, CF (R&D Systems …). Described as above.
Assay [11] has as its target T1, Recombinant Human DLL4 (R&D Systems …). In words: ECL (MSD multi-spot) titration, Fab at 0.00391 uM; blank spot 576.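 Further: blank spot per well as comparator with Hit at signal to blank ratio of 4 or more.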
Assay [12] addresses T2, rHuman EGF R/Fc Chimera, CF (R&D …). The assay is described as above.
The target in assay [13] is T3, rHuman P-Cadherin/Fc Chimera, CF (R&D …). The assay is described as above.
The target of assay [14] is T4, rHuman Erythropoietin R/Fc Chimera, CF …. Described as above.
In assay [15] the target is T5, rHuman IGF-1 sR, CF (R&D Systems …). Described as above.
Assay [16] deals with T1, Recombinant Human DLL4 (R&D Systems …). In words: ECL (MSD multi-spot) titration, Fab at 0.01563 uM; blank spot 906.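 Further: blank spot per well as comparator with Hit at signal to blank ratio of 4 or more.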
The target of assay [17] is T2, rHuman EGF R/Fc Chimera, CF (R&D …). The description is as above.
The target in assay [18] is T3, rHuman P-Cadherin/Fc Chimera, CF (R&D …). The description is as above.
In assay [19] the target is T4, rHuman Erythropoietin R/Fc Chimera, CF …. Described as above.
Assay [20] concerns the target T5, rHuman IGF-1 sR, CF (R&D Systems …). Described as above.
In assay [21] the target is T6, Recombinant Human DLL4 (R&D Systems, Cat#1506-D4/CF) (human, UniProt Q9NR61 27-529).
T6 construct: Bought protein; also called rHuman DLL4; delta-like protein 4
In words: ECL (MSD) Fab titration; binding affinity estimated from the 50% binding signal.

In assay [22] the target is T7, rHuman CD44/Fc Chimera, CF (R&D Systems Cat#3660-CD) (human, UniProt P16070 21-220).
T7 construct: Bought protein; not shown: Fc of the bought chimera
In words: ECL (MSD multi-spot) titration, Fab at 360 nM; blank spot 462.

Assay [23] addresses T8, rHuman ErbB2/Fc Chimera, CF (R&D Systems Cat#1129-ER) (human, UniProt P04626 23-652).
T8 construct: Bought protein; also called HER2/neu; human epidermal growth factor 2 receptor; not shown: Fc of the bought chimera
Described as above.

The target of assay [24] is T9, rHuman HGF R/c-MET/Fc Chimera, CF (R&D Systems Cat#358-MT/CF) (human, UniProt P08581 25-932).
T9 construct: Bought protein; also called HGF R/Fc; hepatocyte growth factor receptor; not shown: Fc of the bought chimera
The assay is described as above.

Assay [25] deals with T3, rHuman P-Cadherin/Fc Chimera, CF (R&D …). Described as above.
In assay [26] the target is T4, rHuman Erythropoietin R/Fc Chimera, CF …. The assay is described as above.
For assay [27], the target named is T5, rHuman IGF-1 sR, CF (R&D Systems …). Described as above.
Assay [28] addresses T7, rHuman CD44/Fc Chimera, CF (R&D Systems …). As to the kind of experiment: ECL (MSD multi-spot) titration, Fab at 36 nM; blank spot 413.
The target in assay [29] is T8, rHuman ErbB2/Fc Chimera, CF (R&D …). The assay is described as above.
The target of assay [30] is T9, rHuman HGF R/c-MET/Fc Chimera, CF (R&D …). Described as above.
Assay [31] deals with T3, rHuman P-Cadherin/Fc Chimera, CF (R&D …). Described as above.
Assay [32] concerns the target T4, rHuman Erythropoietin R/Fc Chimera, CF …. The assay is described as above.
For assay [33], the target named is T5, rHuman IGF-1 sR, CF (R&D Systems …). Described as above.

B1: Fab VH1-46_IGHD2-15*01_IGHJ2*01 & L2_IGKJ1*01 (Fab, V domains shown)
VH: QVQLVQSGAEVKKPGASVKVSCKASGYTFTSYYMHWVRQAPGQGLEWMGIINPSGGSTSYAQKFQGRVTMTRDTSTSTVYMELSSLRSEDTAVYYCAREGYCSGGSCYSYWYFDLWGRGTLVTVSS
VL: not shown
notes: also called Fab No. 6
In the case of B1, the ECL signal in assay [1] stood at 8050; in assay [2] it was 94800; in assay [3] it was 7740; in [4], 21100; in [5], 3150; in assay [6], 27700. The ECL signal in assay [7] was 117000; in assay [8], 25500; in [9], 49200; in [10] it was 11000; in assay [11] it was 1550; in [12] it was 35900. Further, the ECL signal turned out to be 1960 in [13]; 5020 in assay [14]; 822 in assay [15]; 4020 in [16]; 70800 in assay [17]; 4940 in assay [18]. For the same molecule, the ECL signal in assay [19] came out at 11300; in [20], 1740.

B2: Fab VH1-46_IGHD6-6*01_IGHJ1*01 & L6_IGKJ1*01 (Fab, V domains shown)
VH: QVQLVQSGAEVKKPGASVKVSCKASGYTFTSYYMHWVRQAPGQGLEWMGIINPSGGSTSYAQKFQGRVTMTRDTSTSTVYMELSSLRSEDTAVYYCAREEYSSSSAEYFQHWGQGTLVTVSS
VL: not shown
notes: Fab from E. coli; VH joined to CH1 with Flag and His tags (Plasmid A), VL to kappa CL (Plasmid C)
In the case of B2, the dissociation constant Kd in assay [21] is at most 10 nM.

B3: Fab VH4-28_IGHD7-27*01_IGHJ1*01 & L2_IGKJ1*01 (Fab, V domains shown)
VH: QVQLQESGPGLVKPSDTLSLTCAVSGYSISSSNWWGWIRQPPGKGLEWIGYIYYSGSTYYNPSLKSRVTMSVDTSKNQFSLKLSSVTAVDTAVYYCARTNWGAEYFQHWGQGTLVTVSS
VL: not shown
notes: also called Fab No. 1
With B3, the ECL signal is 740 in assay [22]; 647 in assay [23]; 581 in [24]; 636 in [25]; 4720 in assay [26]; 535 in assay [27]. Besides, the ECL signal in assay [28] was 679; in assay [29], 600; in [30] it was 613; in [31] it was 693; in assay [32] it was 2980; in assay [33], 486.
